{
  "source": "patent US6784157B2",
  "about": "“Peptides and peptidomimetics with structural similarity to human p53 that activate p53 function” (Bayer Corporation, priority 1995, dated 2004)",
  "key": {"human wild-type p53": {"molecular_target": "T1, human wild-type p53 (Homo sapiens, UniProt P04637)", "T1 construct": "Plasmid pGEMhump53wt encodes full-length human wild-type p53; made in house; host or cells: cell-free in vitro transcription and translation from pGEM4-based plasmid", "test": "p53 DNA binding assay: activation of DNA binding of wild-type p53", "assay_type": "biochemical", "details": "for activation of binding of wild-type p53: peptide 0.4 mM; for potency in activating DNA binding relative to p53p373-383: 0.4 mM"}, "p53 mutant His273": {"molecular_target": "T2, p53 mutant His273 (Homo sapiens, UniProt P04637, R273H)", "T2 construct": "made in house; host or cells: cell-free in vitro transcription and translation from pGEMhump53His273", "test": "p53 DNA binding assay: activation of DNA binding of mutant His273", "assay_type": "biochemical", "details": "oligonucleotide BC", "procedure": "(§1) The ability of the peptides of this invention to activate DNA binding of human p53 was assayed using a standard DNA binding assay for p53 [Halazonetis et al. (1993), cited above; Halazonetis and Kandil (1993), cited above]. This assay utilizes in vitro translated human wild-type p53 or tumor-derived p53 mutants and specific oligonucleotides containing p53 binding sites. These reagents and methods for preparing them are described below.\nPlasmid pGEMhump53wt was used to generate plasmids encoding mutant p53 proteins frequently associated with human cancer. The mutations introduced are those that are most frequently associated with human tumors [Caron de Fromentel et al. (1992), Genes Chrom. Cancer, 4: 1-15]. […]\nPlasmids of the pGEMhump53 series were used to produce in vitro transcribed mRNA and subsequently in vitro translated protein, according to standard procedures [Halazonetis et al. (1988), Cell, 55: 917-924]. […] Thus, the presence of slowly migrating DNA, which can be detected by autoradiography, indicates p53 DNA binding [Halazonetis et al. (1993), cited above; Halazonetis and Kandil (1993), cited above]. […]"}, "oligonucleotide BC.V4A": {"test_system": "oligonucleotide BC.V4A", "test": "DNA binding assay of in vitro translated p53 deletion mutants (gel shift)", "procedure": "as §1\nPlasmids of the pGEMhump53 series were used to produce in vitro transcribed mRNA and subsequently in vitro translated protein, according to standard procedures [Halazonetis et al. (1988), Cell, 55: 917-924]. The in vitro translated proteins were assayed for DNA binding, as previously described [Halazonetis et al. (1993), cited above, and incorporated herein by reference]. Briefly the in vitro translated protein is incubated with a radioactively labeled oligonucleotide containing a p53 binding site in the presence of non-specific competitor DNA. The reaction mixture is incubated 20 min. at room temperature and directly loaded on a native 5% polyacrylamide electrophoresis gel. In this type of DNA binding assay free DNA migrates to the bottom of the gel, whereas p53/DNA complexes migrate more slowly. Thus, the presence of slowly migrating DNA, which can be detected by autoradiography, indicates p53 DNA binding [Halazonetis et al. (1993), cited above; Halazonetis and Kandil (1993), cited above].\nAs non-specific competitor DNAs we used 0.1 μg single-stranded oligonucleotide MI7 [[…], SEQ ID NO: 27] and 0.05 μg double-stranded oligonucleotide TF3 [[…], SEQ ID NO: 28] per reaction.\nA number of double-stranded oligonucleotides containing p53 binding sites were radioactively labeled for these experiments. […] These three sites are indicated below, and the specific pentanucleotide repeats recognized by p53 are demarcated by hyphens. The sequence of oligonucleotide Ewaf1 (top strand) is: CCC-GAACA-TGTCC-CAACA-TGTTG-GGG [SEQ ID NO: 29]. […]"}, "[1]": {"details": "oligonucleotide Ewaf1, peptide 0.2-0.3 mM"}},
  "note": "Like-named read-outs stand apart in the source and are kept apart here. Starred links: 1 amine or outer side, 2 acyl side, 3 side chain; linkers in the order of their positions; H or OH if unused. Non-standard residues stand in square brackets, D forms with d. Residues, ends and D or L forms follow the SMILES beside them. No end group written: not given here. X1 = O=C([C@H](CC1C=NC=N1)N[*:1])[*:2]",
  "data": [
    {"compound": "Ser Lys Lys Gly Gln Ser Thr Ser Arg His Lys Lys Leu (SKKGQSTSRHKKL) [p53p371-383]", "values": [
      {"measurement": "activation of DNA binding of wild-type p53", "setting": "human wild-type p53; oligonucleotide BC.V4A, peptide 0.2-0.4 mM", "result": "activated"},
      {"measurement": "DNA binding activity of p53His273 in presence of peptide", "setting": "p53 mutant His273; peptide 0.4 mM", "result": "demonstrated DNA binding activity"}
    ]},
    {"compound": "Arg Ala His Ser Ser His Leu Lys Ser Lys Lys Gly Gln Ser Thr Ser Arg His Lys Lys Leu Met Phe Lys (Ac-RAHSSHLKSKKGQSTSRHKKLMFK-NH2) [p53p363-386]", "values": [
      {"measurement": "activation of DNA binding of wild-type p53", "setting": "human wild-type p53; [1]", "result": "activated"}
    ]},
    {"compound": "Lys Gly Gln Ser Thr Ser Arg His Lys Lys Leu (Ac-KGQSTSRHKKL-NH2) [p53p373-383]", "values": [
      {"measurement": "activation of binding of wild-type p53", "setting": "human wild-type p53; oligonucleotide Ewaf1", "result": "activated"}
    ]},
    {"compound": "C[C@H]1NC(=O)[C@H](CCCCN)NC(=O)[C@H](CCCCN)NC(=O)[C@H](CC2C=NC=N2)NC(=O)[C@H](CCCNC(=N)N)NC(=O)[C@H](CO)NC1=O", "note": "(some centres unmarked) [c[SRHKKa]] (cyclo(KK[dA]SR[X1]))", "values": [
      {"measurement": "efficiency of activation of p53 DNA binding relative to 0.05 mM peptide p53p363-373", "setting": "human wild-type p53; peptide 0.1 mM, assay of Example 2, p53 form and oligonucleotide not stated", "result": "about two times more efficiently"}
    ]},
    {"compound": "His Leu Lys Ser Lys Lys Gly Gln Ser Thr Ser Arg His (Ac-HLKSKKGQSTSRH-NH2) [p53p368-380]", "values": [
      {"measurement": "potency in activating DNA binding relative to p53p373-383", "setting": "human wild-type p53; oligonucleotide Ewaf1", "result": "somewhat more potent"},
      {"measurement": "activation of binding of wild-type p53", "setting": "human wild-type p53; oligonucleotide Ewaf1", "result": "activated"}
    ]},
    {"compound": "Arg Ala His Ser Ser His Leu Lys Ser Lys Lys (Ac-RAHSSHLKSKK-NH2) [p53p363-373]", "values": [
      {"measurement": "potency in activating DNA binding relative to p53p373-383", "setting": "human wild-type p53; oligonucleotide Ewaf1", "result": "somewhat more potent"},
      {"measurement": "activation of binding of wild-type p53", "setting": "human wild-type p53; oligonucleotide Ewaf1", "result": "activated"}
    ]},
    {"compound": "p53D356-393: human wild-type p53 with deletion of residues 356-393, in vitro translated", "values": [
      {"measurement": "Binding of Mutant p53 to BC.V4A DNA", "setting": "oligonucleotide BC.V4A", "result": "activated"}
    ]},
    {"compound": "Cys Gly Gly Ser Arg Ala His Ser Ser His Leu Lys Ser Lys Lys Gly Gln Ser Thr Ser Arg His Lys Lys Leu Met Phe Lys (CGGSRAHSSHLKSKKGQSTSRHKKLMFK; also: mixed with deletion peptides lacking Gly/Phe) [p53pC360-386]", "values": [
      {"measurement": "activation of DNA binding of wild-type p53", "setting": "human wild-type p53; oligonucleotide BC.V4A, 0.02-0.2 mM peptide", "result": "activated"},
      {"measurement": "activation of DNA binding of wild-type p53", "setting": "human wild-type p53; oligonucleotide Ewaf1, concentration not given", "result": "activated"},
      {"measurement": "DNA binding activity of p53His273 in presence of peptide", "setting": "p53 mutant His273; peptide 0.2 mM", "result": "demonstrated DNA binding activity"}
    ]},
    {"compound": "Ser His Leu Lys Ser Lys Lys Gly Gln Ser Thr Ser Arg His Lys Lys Leu Met Phe Lys (Ac-SHLKSKKGQSTSRHKKLMFK-NH2) [p53p367-386]", "values": [
      {"measurement": "activation of DNA binding of wild-type p53", "setting": "human wild-type p53; [1]", "result": "activated"}
    ]},
    {"compound": "p53D364-393: human wild-type p53 with deletion of residues 364-393, in vitro translated", "values": [
      {"measurement": "Binding of Mutant p53 to BC.V4A DNA", "setting": "oligonucleotide BC.V4A", "result": "activated"},
      {"measurement": "Binding of Mutant p53 to BC.V4A DNA", "setting": "oligonucleotide BC.V4A; listed as pGEMhump53D364-393", "result": "activates DNA binding"}
    ]},
    {"compound": "Ser Arg Ala His Ser Ser His Leu Lys Ser Lys Lys Gly Gln Ser Thr Ser Arg His Lys Lys Leu Met Phe Lys (Ac-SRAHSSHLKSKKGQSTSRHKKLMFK-NH2) [p53p362-386]", "values": [
      {"measurement": "activation of DNA binding of wild-type p53", "setting": "human wild-type p53; [1]", "result": "activated"}
    ]}
  ]
}
